The values that follow come from patent publication US20240270840A1 (NECTIN THERAPEUTICS, published 2024).

Positions count from the first letter of the chain named. Numbers in names are those of the source.

The chains are these.
T1: Human CD112R (PVRIG) (human, UniProt Q6DKI7 41-171, limits assumed)
T1 sequence (looked up): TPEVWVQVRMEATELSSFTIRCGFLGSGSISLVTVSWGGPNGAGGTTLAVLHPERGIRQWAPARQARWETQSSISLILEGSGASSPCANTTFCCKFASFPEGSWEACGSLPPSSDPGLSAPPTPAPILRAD

B1: VH0K1 N28T (antibody, V domains shown)
VH: QVQLQQPGAELVKPGTSVKLSCKASGYTFTSYWINWVKLRPGQGLEWIGDIYPGSYIPNYNEKFKNKATLTVDTSSSTAYMQLTSLASEDSALYYCAGGYFDVWGAGTTVTVSS
VL: DIVMTQSPDSLSVSLGERATINCKSSQSLLSSGNQKNYLAWYQQKPGQPPKLLIYGASTRESGVPDRFTGSGSGTDFTLTISSLQAEDVAVYYCQNDHSYPYTFGQGTKLEIK
B2: VH9K2 (antibody, V domains shown)
VH: QVQLVQSGAEVKKPGSSVKVSCKASGYTFTSYWINWVKLAPGQGLEWIGDIYPGSYIPNYNEKFKNRATLTVDTSASTAYMELSSLRSEDTAVYYCAGGYFDVWGQGTTVTVSS
VL: B1 VL with S12A
B3: VH9K0 (antibody, V domains shown)
VH: B2 VH
VL: B1 VL with D9S, L15A, R18K, A19V, I21M, N22S, L84V, V89L, Q106G
B4: VH0K3 N28T (antibody, V domains shown)
VH: B1 VH
VL: B1 VL with S12A, T69S
B5: VH0 N28A Vk0 (antibody, human IgG1, V domains shown)
VH: B1 VH with T28A
VL: B1 VL with D9S, L15A, R18K, A19V, I21M, N22S, L84V, V89L, Q106G
notes: Variant of VH0K0
B6: VH0 N28D Vk0 (antibody, human IgG1, V domains shown)
VH: B1 VH with T28D
VL: B1 VL with D9S, L15A, R18K, A19V, I21M, N22S, L84V, V89L, Q106G
notes: Variant of VH0K0 without the N-linked glycosylation motif of heavy chain CDR1
B7: VH0 N28Q Vk0 (antibody, human IgG1, V domains shown)
VH: B1 VH with T28Q
VL: B1 VL with D9S, L15A, R18K, A19V, I21M, N22S, L84V, V89L, Q106G
notes: Variant of VH0K0
B8: VH11K2 as tested in Table 4 (humanized scFv variant) (scFv, V domains shown)
VH: B2 VH with K38R, L39Q
VL: B1 VL with S12A
notes: Format as for m33
B9: VH0K0 as tested in Table 4 (scFv of VH0K0) (scFv, V domains shown)
VH: B1 VH with T28N
VL: B1 VL with D9S, L15A, R18K, A19V, I21M, N22S, L84V, V89L, Q106G
B10: VH10K2 as tested in Table 4 (humanized scFv variant) (scFv, V domains shown)
VH: B2 VH with K38R, L39Q, R87A, V93L
VL: B1 VL with S12A
B11: VH10K3 as tested in Table 4 (humanized scFv variant) (scFv, V domains shown)
VH: B2 VH with K38R, L39Q, R87A, V93L
VL: B1 VL with S12A, T69S
notes: Format as for m33
B12: VH11K3 as tested in Table 4 (humanized scFv variant) (scFv, V domains shown)
VH: B2 VH with K38R, L39Q
VL: B1 VL with S12A, T69S
notes: Format as for m33
B13: VH11K1 as tested in Table 4 (humanized scFv variant) (scFv, V domains shown)
VH: B2 VH with K38R, L39Q
VL: B1 VL
notes: Format as for m33
B14: VH9K1 (antibody, V domains shown)
VH: B2 VH
VL: B1 VL
B15: VH10K1 (antibody, V domains shown)
VH: B2 VH with K38R, L39Q, R87A, V93L
VL: B1 VL
B16: VH10K0 (antibody, V domains shown)
VH: B2 VH with K38R, L39Q, R87A, V93L
VL: B1 VL with D9S, L15A, R18K, A19V, I21M, N22S, L84V, V89L, Q106G
B17: VH9K3 (antibody, V domains shown)
VH: B2 VH
VL: B1 VL with S12A, T69S
B18: VH0K2 N28T (antibody, V domains shown)
VH: B1 VH
VL: B1 VL with S12A
B19: VH11K0 (antibody, V domains shown)
VH: B2 VH with K38R, L39Q
VL: B1 VL with D9S, L15A, R18K, A19V, I21M, N22S, L84V, V89L, Q106G

What is called Kd is a measure of binding affinity in units of concentration. The low end stands for tighter binding, the high end for weaker binding. The koff is the first-order rate constant of dissociation. Higher therefore signals a short-lived complex. For orientation: kon means the second-order rate constant of association.

One assay concerns the target T1, Human CD112R (PVRIG). In words: SPR (Biacore); purified full antibody; * limit of the Biacore instrument sensitivity.
As to B1, the Kd stood at 0.0259 nM, the “Relative Kd (against VH0K0 N28T)” value was 0.21, the dissociation rate constant (koff) amounted to 8.3e-06 s⁻¹ and the kon came to 320000 M⁻¹ s⁻¹.
For the molecule B2, the Kd was 0.0432 nM, the “Relative Kd (against VH0K0 N28T)” value amounted to 0.34, the koff was found to be 1.3e-05 s⁻¹ and the kon amounted to 301000 M⁻¹ s⁻¹.
Taken in the same sequence, the figures for B3 were 0.0103 nM, 0.08, 3.09e-06 s⁻¹ and 300000 M⁻¹ s⁻¹.
Taken in the same sequence, the figures for B4 were 0.0321 nM, 0.25, 1.06e-05 s⁻¹ and 330000 M⁻¹ s⁻¹.

The target of the next assay is T1, Human CD112R (PVRIG). In words: affinity of glycosylation-motif variants (Table 2; method not named there).
B5: the Kd was determined as 0.15 nM and the “Relative Kd (against VH0Vk0)” value was 0.9.
Taken in the same sequence, the figures for B6 were 0.122 nM and 0.73.
Taken in the same sequence, the figures for B7 were 0.116 nM and 0.69.

The target in the next assay is T1, Human CD112R (PVRIG). In words: binding kinetics to human CD112R (Table 4; scFv variants by paragraph 288).
For the molecule B8, the equilibrium dissociation constant (Kd) is 0.191 nM, the “Relative Kd (against VH0K0)” value came out at 0.62, the koff amounted to 0.000105 s⁻¹ and the on-rate (kon) came out at 552000 M⁻¹ s⁻¹.
For B9, in that order: 0.307 nM, 1, 8.89e-05 s⁻¹ and 290000 M⁻¹ s⁻¹.
Taken in the same sequence, the figures for B10 were 0.214 nM, 0.7, 0.000133 s⁻¹ and 623000 M⁻¹ s⁻¹.
Regarding B11, the Kd is 0.197 nM, the “Relative Kd (against VH0K0)” value was determined as 0.64, the koff turned out to be 0.000107 s⁻¹ and the association rate constant (kon) is 545000 M⁻¹ s⁻¹.
For B12, in that order: 0.19 nM, 0.62, 0.000101 s⁻¹ and 530000 M⁻¹ s⁻¹.
For B13, in that order: 0.165 nM, 0.54, 0.000101 s⁻¹ and 630000 M⁻¹ s⁻¹.

A further assay has as its target T1, Human CD112R (PVRIG). Put plainly: SPR (Biacore); purified full antibody. (In general: In SPR one partner is held on a chip, and binding of the other changes the refractive index at the surface.)
On to B14, for which the affinity, expressed as Kd, was 0.111 nM; the “Relative Kd (against VH0K0 N28T)” value was 0.87; the off-rate (koff) was 3.87e-05 s⁻¹; the kon worked out at 350000 M⁻¹ s⁻¹.
Taken in the same sequence, the figures for B15 were 0.119 nM, 0.94, 4.18e-05 s⁻¹ and 351000 M⁻¹ s⁻¹.
Taken in the same sequence, the figures for B16 were 0.135 nM, 1.07, 4.66e-05 s⁻¹ and 345000 M⁻¹ s⁻¹.
For the molecule B17, the Kd is ~0.154 nM, the “Relative Kd (against VH0K0 N28T)” value was determined as 1.22, the off-rate (koff) stood at 1.06e-05 s⁻¹ and the kon came out at 330000 M⁻¹ s⁻¹.
As for B18, binding was characterised by a dissociation constant (Kd) of 0.109 nM, the “Relative Kd (against VH0K0 N28T)” value came to 0.87, the koff was found to be 4.34e-05 s⁻¹ and the kon worked out at 398000 M⁻¹ s⁻¹.
For B19, in that order: 0.101 nM, 0.8, 3.19e-05 s⁻¹ and 316000 M⁻¹ s⁻¹.
